Literature values, collected in article PMC7785802, “Therapeutic Efficacy of a Trichinella Spiralis Paramyosin-Derived Peptide Modified With a Membrane-Targeting Signal in Mice With Antigen-Induced Arthritis” (Frontiers in Microbiology, 2020).
Read-outs that look alike come from different tables or passages of the source.

System: antigen-induced arthritis (AIA)
Conditions: intraarticular injection prior to disease onset or at disease flares, animal models, Williams et al., 2004, Durigutto et al., 2013
Description: As MAC is a therapeutic target in RA, complement inhibitors have shown potential for preventing and treating arthritis in animal models (Goodfellow et al., [2000]; Durigutto et al., [2013]). Moreover, local or targeted inhibition might be an effective way to circumvent the adverse effects of systemic complement inhibition. […] More precisely, intraarticular injection of membrane-targeted CD59 or Fc fusio ... || RA is an autoimmune disease that has been confirmed to involve inappropriate complement activation in the joint cavity, making the delivery of anti-complement drugs into the joint cavity an ideal therapeutic strategy to relieve RA progression (Dijkstra et al., [2019]). […] Murine AIA, a well-recognized acute complement-dependent arthritis, imitates the pathology of RA (van den Berg et al., [2007]). As complement activation is involved in the process of AIA, this model has been utilized in many studies to assess the therapeutic efficacy of complement inhibitors that might affect various stages of complement activation. In animal models, intraarticular injection of complement inhibitors (including sCR1, CD59, and anti-C5 neutralizing recombinant mini-antibody) prior to ...

B1: CD59: a heavily glycosylated protein of 20 kDa that can specifically inhibit MAC formation (protein, UniProt P13987 26-102, looked up)
CD59 glycoprotein: LQCYNCPNPTADCKTAVNCSSDFDACLITKAGLQVYNKCWKFEHCNFNDVTTRLRENELTYYCCKKDLCNFNEQLEN
In the case of B1, the “effect on joint swelling and development of AIA” value (ref Goodfellow et al., 2000) is given as “alleviate joint swelling and the development of AIA” and the “effect on joint swelling and development of AIA” value (ref Harris et al., 2002) is given as “alleviate joint swelling and the development of AIA”.
